Assay results from patent US11078465B2, “Alcohol dehydrogenase mutant and application thereof in synthesis of diaryl chiral alcohols” (Jiangnan University, priority 2018, dated 2021).
Entries after “also recorded” stand apart in the source; their conditions may differ.

Columns and labels:
Type in all cases: biochemical
[1] = Asymmetric reduction in 20 mL biocatalytic system, conversion
Method: (§1) In an embodiment of the present disclosure, a chromatographic analysis method is as follows: 100 μL of reactant liquid is taken, 500 μL of ethyl acetate is added, shaking is performed for 1-2 min, centrifugation is performed at 12,000 rpm for 2-5 min, supernatant liquid is taken into a centrifuge tube, after an organic phase naturally volatilizes completely, 500 μL of chromatographically pure ethanol is added, and chiral liquid chromatography and gas chromatography are performed to analyze the transformation rate and the ee value.
The pure (R)-CPMA were recrystallized from ethyl acetate at 4° C. and gave 99.9% optical purity. […] Besides, the conversion cannot reach 100% with 24 h in the asymmetric reduction of (4-bromophenyl)-(phenyl)-methanone and p-nitrobenzophenone due to the low enzyme activity.

[2] = Stereoselectivity on different substrates; conditions: for Stereoselectivity (ee): configuration in brackets
Method: as §1
(§2) Method for determining optical purity ee:
(§3) As: molar concentration of (S)-CPMA obtained by liquid chromatography; and AR: molar concentration of (R)-CPMA obtained by liquid chromatography.
(§4) The reduction on prochiral carbonyl compounds by the alcohol dehydrogenase mutants obtained in Example 3 was studied. The pro-chiral carbonyl compounds include (4-chlorophenyl)-(pyridin-2-yl)-methanone (CPMK), phenyl-(pyridin-2-yl)-methanone, (4-chlorophenyl)-(phenyl)-methanone, (4-bromophenyl)(phenyl)methanone, (4-fluorophenyl)(phenyl)methanone, (4-methoxyphenyl)-(phenyl)-methanone, (4-nitrophenyl)(phenyl)methanone, 1-(pyridin-2-yl)ethanone, acetophenone, 4′-Chloroacetophenone, 4-chlorophenacyl chloride, ethyl 2-oxo-4-phenylbutanoate (OPBE), ethyl 4-chloro-3-oxobutanoate, and methyl 2-oxo-2-phenylacetate.
All the products above were recrystallized from ethyl acetate and gave more than 99.9% optical purity.

[3] = Stereoselectivity on different substrates; conditions: configuration in brackets
Method: as §1, §2, §3, §4

[4] = Kinetic analysis of alcohol dehydrogenase and mutants (NADPH oxidation, 340 nm, double reciprocal curve); conditions: substrate CPMK
Method: (§5) Adopting a total reaction system of 200 μL, including: 1.0 mM NADPH, 1.0 mM substrate CPMK and sodium phosphate buffer (PBS, 100 mM, pH 7.0), fully and evenly mixing, maintaining at 30° C. for 2 min, adding an appropriate amount of enzyme solution, and detecting the change in light absorption at 340 nm.
(§6) The enzyme activity was calculated by the following formula: Enzyme activity (U)=EW×V×10^3/(6220×I);
(§7) in the formula, EW is the change in absorbance at 340 nm in 1 min; V is the volume of a reaction solution in mL; 6220 is the molar extinction coefficient of NADPH in L/mol·cm); and 1 is the optical path distance in cm. One activity unit (U) corresponds to the amount of enzyme required to catalyze the oxidation of 1 μmol NADPH per minute under the above conditions.
A column used for purification was a nickel affinity column HisTrap FF crude, and purification was achieved through affinity chromatography using a histidine tag on recombinant protein. The nickel column was equilibrated with a solution A first, a crude enzyme solution was loaded, a penetrating peak was further eluted off using the solution A, and after equilibrium, a solution B (20 mM sodium phosphate, 500 mM NaCl, and 1000 mM imidazole, pH 7.4) was used for gradient elution to elute off the recombinant protein bound to the nickel column, so as to obtain the recombinant alcohol dehydrogenase mutant. The purified protein was subjected to activity measurement (CPMK as substrate, and NADPH as coenzyme) and SDS-PAGE analysis. […] The purified alcohol dehydrogenase protein was then replaced into a Tris-HCl (100 mM, pH 7.0) buffer using a Hi Trap Desalting column (GE Healthcare).
The activity of KpADH at different substrate concentrations and coenzyme concentrations was determined, and a double reciprocal curve was made based on the reciprocal of activity and substrate concentration to calculate kinetic parameters.

[5] = Substrate specificity, specific activity
Method: as §5, §6, §7, §4

[6] = Stereoselectivity (ee) of CPMK reduction, chiral liquid chromatography; conditions: for e.e.: product configuration in brackets
Method: as §1, §2, §3

[7] = substrate [drawing 10], acetophenone
[8] = substrate [drawing 11], 4-chloroacetophenone
[9] = substrate [drawing 12], 4-chlorobenzoyl chloride
[10] = substrate [drawing 16], (4-bromophenyl)-(phenyl)-methanone
[11] = substrate [drawing 17], p-nitrobenzophenone
[12] = substrate [drawing 14], likely CPMK (values partly match Table 4)
[13] = substrate [drawing 6], 4-chlorophenacyl chloride
[14] = substrate [drawing 9], ethyl 4-chloro-3-oxobutanoate

B1: E214S/S237C: serine for glutamate at position 214 and cysteine for serine at position 237 of SEQ ID No. 2 (protein)
chain: MSVLISGASGYIAKHIVRVLLEQNYKVIGTVRSQDKADKLLKQYNNPNLSYEIVPEIANLDAFDDIFKKHGKEIKYVIHAASPVNFGAKDLEKDLVIPAINGTKNMFEAIKKYAPDTVERVVMTASYASIMTPHRQNDPTLTLDEETWNPVTEENAYENVFTAYCASKTFAEKEAWKFVKENSDAVKFKLTTIHPSFVFGPQNFDEDVTKKLNSTCEIINGLLHAPFDTKVEKTHFCQFIDVRDVAKTHVLGFQKDELINQRLLLCNGAFSQQDIVNVFNEDFPELKGQFPPEDKDTDLNKGVTGCKIDNEKTKKLLAFEFTPFHKTIHDTVYQILHKEGRV
modifications: Protein translated from synthetic DNA
B1 showed a Conversion rate ([1]; 4-chlorobenzoyl chloride 100 mM, 1 h) of 66%, a Conversion rate ([1]; 4-chlorobenzoyl chloride 100 mM, 2 h) of 79% and a Conversion rate ([1]; 4-chlorobenzoyl chloride 100 mM, 3 h) of 90%. It also gave a Conversion rate ([1]; 4-chlorobenzoyl chloride 100 mM, 4 h) of 98%, a Conversion rate ([1]; 4-chlorobenzoyl chloride 100 mM, 6 h) of 99.2% and a Conversion rate ([1]; 4-chlorobenzoyl chloride 100 mM, 8 h) of 99.8%. The Conversion rate ([1]; 4-chlorobenzoyl chloride 100 mM, 12 h) was greater than 99.9%, the Conversion rate ([1]; 4-chlorobenzoyl chloride 100 mM, 24 h) was greater than 99.9% and the Conversion rate ([1]; 4-chlorobenzoyl chloride 200 mM, 1 h) was 55%. The Conversion rate ([1]; 4-chlorobenzoyl chloride 200 mM, 2 h) was 69%, the Conversion rate ([1]; 4-chlorobenzoyl chloride 200 mM, 3 h) was 76% and the Conversion rate ([1]; 4-chlorobenzoyl chloride 200 mM, 4 h) was 85.9%. The Conversion rate ([1]; 4-chlorobenzoyl chloride 200 mM, 6 h) was 96.4%, the Conversion rate ([1]; 4-chlorobenzoyl chloride 200 mM, 8 h) was 99.1% and the Conversion rate ([1]; 4-chlorobenzoyl chloride 200 mM, 12 h) was 99.8%. For the same molecule, the Conversion rate ([1]; 4-chlorobenzoyl chloride 200 mM, 24 h) was greater than 99.9%, the Conversion rate ([1]; 4-chlorobenzoyl chloride 500 mM, 1 h) was 35.6% and the Conversion rate ([1]; 4-chlorobenzoyl chloride 500 mM, 2 h) was 49.6%. It also gave a Conversion rate ([1]; 4-chlorobenzoyl chloride 500 mM, 3 h) of 66.4%, a Conversion rate ([1]; 4-chlorobenzoyl chloride 500 mM, 4 h) of 79.3% and a Conversion rate ([1]; 4-chlorobenzoyl chloride 500 mM, 6 h) of 89.0%. The Conversion rate ([1]; 4-chlorobenzoyl chloride 500 mM, 8 h) was 95.6%, the Conversion rate ([1]; 4-chlorobenzoyl chloride 500 mM, 12 h) was 96.9% and the Conversion rate ([1]; 4-chlorobenzoyl chloride 500 mM, 24 h) was 98.9%. The ee value ([2]; substrate 4-chlorobenzoyl chloride) was 99.6%, the “Stereoselectivity (ee)” value [2, 7] was 98.9 (R) and the “Stereoselectivity (ee)” value [2, 8] was 95.6 (R). The “Stereoselectivity (ee)” value [2, 9] was 99.6 (R), the “Stereoselectivity (ee)” value [2, 10] was 90.6 (R) and the “Stereoselectivity (ee)” value [2, 11] was 91.9 (R). For the same molecule, the “Stereoselectivity (ee)” value ([3]; substrate [drawing 13]) was 52.6 (R), the “Stereoselectivity (ee)” value [3, 12] was 52.0 (S) and the “Stereoselectivity (ee)” value ([3]; substrate [drawing 15]) was 88.1 (R). For the same molecule, the “Stereoselectivity (ee)” value ([3]; substrate [drawing 18]) was 92.3 (R), the Kcat [4] was 8.33 ± 0.17 s⁻¹ and the Km [4] was 400 ± 20 µM. The Vmax [4] was 12.5 ± 0.16 µM/min/mg, the specific activity ([5]; substrate [drawing 1]) was 0.19 U/mg and the specific activity ([5]; substrate [drawing 2]) was 0.09 U/mg. It also gave a specific activity ([5]; substrate [drawing 3]) of 0.25 U/mg, a specific activity ([5]; substrate [drawing 4]) of 5.69 U/mg and a specific activity ([5]; substrate [drawing 5]) of 2.55 U/mg. For the same molecule, the specific activity [5, 13] was 5.96 U/mg, the specific activity ([5]; substrate [drawing 7]) was 15.58 U/mg and the specific activity ([5]; substrate [drawing 8]) was 30.69 U/mg. The specific activity [5, 14] was 1.59 U/mg, the “configuration of product / stereoselectivity in words” value [6] was “inversion from the R configuration to the S configuration; also recorded: (S)-CPMA” and the e.e. [6] was 52.0 (S).

B2: E214V/S237A: valine for glutamate at position 214 and alanine for serine at position 237 of SEQ ID No. 2 (protein)
chain: MSVLISGASGYIAKHIVRVLLEQNYKVIGTVRSQDKADKLLKQYNNPNLSYEIVPEIANLDAFDDIFKKHGKEIKYVIHAASPVNFGAKDLEKDLVIPAINGTKNMFEAIKKYAPDTVERVVMTASYASIMTPHRQNDPTLTLDEETWNPVTEENAYENVFTAYCASKTFAEKEAWKFVKENSDAVKFKLTTIHPSFVFGPQNFDEDVTKKLNVTCEIINGLLHAPFDTKVEKTHFAQFIDVRDVAKTHVLGFQKDELINQRLLLCNGAFSQQDIVNVFNEDFPELKGQFPPEDKDTDLNKGVTGCKIDNEKTKKLLAFEFTPFHKTIHDTVYQILHKEGRV
modifications: Protein translated from synthetic DNA
For B2, the “Stereoselectivity (ee)” value [2, 7] was 17.1 (R), the “Stereoselectivity (ee)” value [2, 8] was 97.8 (R) and the “Stereoselectivity (ee)” value [2, 9] was 75.2 (R). For the same molecule, the “Stereoselectivity (ee)” value [2, 10] was 88.1 (S), the “Stereoselectivity (ee)” value [2, 11] was 85.3 (S) and the “Stereoselectivity (ee)” value ([3]; substrate [drawing 13]) was 36.6 (R). For the same molecule, the “Stereoselectivity (ee)” value [3, 12] was 98.7 (R), the “Stereoselectivity (ee)” value ([3]; substrate [drawing 15]) was 54.2 (S) and the “Stereoselectivity (ee)” value ([3]; substrate [drawing 18]) was 81.8 (S). The Kcat [4] was 8.46 ± 0.27 s⁻¹, the Km [4] was 320 ± 30 µM and the Vmax [4] was 12.69 ± 0.40 µM/min/mg. The specific activity ([5]; substrate [drawing 1]) was 0.16 U/mg, the specific activity ([5]; substrate [drawing 2]) was 0.12 U/mg and the specific activity ([5]; substrate [drawing 3]) was 2.37 U/mg. For the same molecule, the specific activity ([5]; substrate [drawing 4]) was 2.86 U/mg, the specific activity ([5]; substrate [drawing 5]) was 9.21 U/mg and the specific activity [5, 13] was 27.07 U/mg. For the same molecule, the specific activity ([5]; substrate [drawing 7]) was 24.47 U/mg, the specific activity ([5]; substrate [drawing 8]) was 27.64 U/mg and the specific activity [5, 14] was 8.03 U/mg. For the same molecule, the e.e. [6] was 98.5 (R).
